From article PMC12519261
Where no end group is shown, it is not given here.

Biological target: b1b2 domain of NRP-1 (recombinant)
Test: pull-down; Ni-NTA magnetic agarose beads coated with the b1b2 domain of NRP-1; fluorescent HLPNs incubated 1 h at room temperature with uPA added; 50 mM Tris pH 7.5, 1 M NaCl, 5 mM imidazole, 0.05% NP40; eluted with 400 mM imidazole, fluorescence of the eluate read

fold increase of binding by uPA treatment (against no uPA): 4 fold
Binder: AKRGAR-OH (also: FAM label, site not given here, conjugated to surface of HLPNs) [uPA-cleaved LinTT1 peptide with exposed CendR motif, on HLPNs]
